Where “and” joins values, the source holds several entries; their conditions need not be identical. Identical values can stand only once.
Key:
[1] = target: T1, recombinant human BCMA Fc(kih) (human, UniProt Q02223 4-53, biotinylated at the avi-tag at the C-terminus of the Fc knob chain ; Biotinylated in vivo (BirA) at the avi-tag at the C-terminus of the Fc knob chain. That part is not in the letters.); assay: SPR (Biacore T200, 25 C), IgG captured on anti-human Fab chip, BCMA Fc(kih) as analyte, 1:1 Langmuir fit
T1 construct: Monomeric Fc fusion made by knobs-into-holes; also called huBCMA Fc(kih); biotinylated human BCMA; not shown: Human IgG1 hinge-Fc knob chain with C-terminal avi-tag, and the unfused human IgG1 Fc hole chain
Procedure: The affinity of the interaction between anti-BCMA antibodies and recombinant human BCMA Fc(kih) was also determined. Anti-human Fab antibody (GE Healthcare) was directly coupled on a CMS chip at pH 5.0 using the standard amine coupling kit (Biacore, Freiburg/Germany). The immobilization level was about 6500 RU. […] Recombinant human BCMA Fc(kih) was passed at a […] concentration range (1.95 to 500 nM) with a flow of 30 μL/minutes through the flow cells over 120 seconds. The dissociation was monitored for 120 seconds. Bulk refractive index differences were corrected for by subtracting the response obtained on reference flow cell. […] Kinetic constants were derived using the Biacore T100 Evaluation Software (vAA, Biacore AB, Uppsala/Sweden), to fit rate equations for 1:1 Langmuir binding by numerical integration (Table 7).

[2] = target: T1, recombinant human BCMA Fc(kih); assay: SPR (ProteOn XPR36, 25 C), biotinylated BCMA Fc(kih) on NLC chip, Fab as analyte, monovalent affinity
Procedure: Buffer (PBST) was injected along the sixth channel to provide an “in-line” blank for referencing. Association rate constants (kon) and dissociation rate constants (koff) were calculated using a simple one-to-one Langmuir binding model in ProteOn Manager v3.1 software by simultaneously fitting the association and dissociation sensorgrams. The equilibrium dissociation constant (KD) was calculated as the ratio koff/kon.

[3] = target: T1, recombinant human BCMA Fc(kih); assay: competition ELISA: 500 or 1000 nM Fab on plate-bound biotinylated human BCMA; competitor murine APRIL 50 nM/1200 ng/mL; bound Fab read as OD450
Procedure: 500 nM or 1000 nM purified Fabs were added to saturate the coated human BCMA for 1 h at room temperature. […] The plate was washed 3 times with PBS and anti-FLAG-HRP secondary antibody (1:4000) was added for 1 h. Again, the plate was washed 3 times with PBS and developed by adding 100 ul/well BM Blue POD (Roche). The reaction was stopped by adding 50 ul/well 1M H₂SO₄ and the OD was read at 450 nm (reference at 650 nm) for a final read-out of OD₄₅₀₋₆₅₀.

[4] = target: T2, human BCMA stably expressed on HEK293T cells (huBCMA-HEK293T) (human, UniProt Q02223 1-184)
T2 sequence (looked up): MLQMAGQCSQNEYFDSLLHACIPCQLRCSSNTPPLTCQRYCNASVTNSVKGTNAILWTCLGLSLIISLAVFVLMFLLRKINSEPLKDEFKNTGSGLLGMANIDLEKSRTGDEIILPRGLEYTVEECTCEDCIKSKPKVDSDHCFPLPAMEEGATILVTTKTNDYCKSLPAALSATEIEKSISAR

[5] = target: T3, cynomolgus BCMA stably expressed on HEK293T cells (cynoBCMA-HEK293T) (cynomolgus, UniProt A0A2K5UD97 1-183)
[6] = target: T4, human BCMA on human myeloma cells (H929, L363, RPMI-8226, JJN-3, patient myeloma plasma cells) (human, UniProt Q02223 1-184)
T4 sequence (looked up): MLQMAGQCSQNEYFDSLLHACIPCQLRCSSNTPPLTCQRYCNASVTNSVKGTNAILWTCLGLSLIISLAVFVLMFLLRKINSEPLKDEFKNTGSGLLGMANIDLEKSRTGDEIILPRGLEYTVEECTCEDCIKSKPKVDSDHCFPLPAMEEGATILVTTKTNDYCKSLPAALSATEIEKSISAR

[7] = target: T4, human BCMA on human myeloma cells …; assay: cell-based or functional assay
[8] = target: T3, cynomolgus BCMA stably expressed on …; assay: cell-based or functional assay
[9] = target: T4, human BCMA on human myeloma cells …; assay: cell-based or functional assay; remark: listed apart in the source
[10] = target: T4, human BCMA on human myeloma cells …; assay: cell-based or functional assay; remark: listed apart in the source
[11] = target: T5, human CD3ε on Jurkat T cells (human, UniProt P07766 23-207); assay: flow cytometry on CD3-positive Jurkat T cells
T5 construct: whole, on cells; On cells it is part of the TCR/CD3 complex; also called CD3-positive Jurkat T cells
Procedure: Jurkat T cells were cultured in RPMI supplemented with 10% heat-inactivated FCS. Briefly, cultured cells were harvested, counted and cell viability was evaluated using ViCell. Viable cells were then adjusted to 2×10⁶ cells per ml in FACS Stain Buffer (BD Biosciences) containing 0.1% BSA. 100 μl of this cell suspension were further aliquoted per well into a round-bottom 96-well plate. 30 μl of the anti-BCMA/anti-CD3 TCB antibodies or corresponding IgG control were added to the cell-containing wells to obtain final concentrations of 3 nM to 500 nM or 0.1 pM to 200 nM. Anti-BCMA/anti-CD3 TCB antibodies and control IgG were used at the same molarity. After incubation for 30 min at 4° C., cells were centrifuged (5 min, 350×g), washed twice with 150 μl/well BSA-containing FACS Stain Buffer (BD Biosciences), then cells were fixed using 100 ul BD Fixation buffer per well (#BD Biosciences, 554655) at 4° C. for 20 min, resuspended in 120 μl FACS buffer and analyzed using BD FACS Cantoll. Binding of the anti-BCMA/anti-CD3 TCB antibodies to T cells were evaluated and the median fluorescence intensity was determined gated on CD3-expressing Jurkat T cells and plotted in histograms or dot plots.

T3 sequence (A0A2K5UD97 entry or part of it): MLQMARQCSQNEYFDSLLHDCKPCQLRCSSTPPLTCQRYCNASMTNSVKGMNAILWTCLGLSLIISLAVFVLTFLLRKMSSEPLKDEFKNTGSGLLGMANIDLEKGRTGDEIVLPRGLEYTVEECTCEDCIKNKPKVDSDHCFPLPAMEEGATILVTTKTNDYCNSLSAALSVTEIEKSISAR
T5 sequence (P07766 23-207): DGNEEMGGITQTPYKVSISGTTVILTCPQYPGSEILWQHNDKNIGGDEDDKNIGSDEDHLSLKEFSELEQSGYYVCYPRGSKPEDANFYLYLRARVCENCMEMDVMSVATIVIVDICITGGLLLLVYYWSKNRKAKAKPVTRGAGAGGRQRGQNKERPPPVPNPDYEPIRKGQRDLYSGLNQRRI

B1: 13A4 anti-BCMA IgG (antibody, V domains shown)
VH: EVQLVQSGAEVKKPGESLKISCKGSGYSFTSYWIGWVRQMPGKGLEWMGIIYPGDSDTRYSPSFQGQVTISADKSISTAYLQWSSLKASDTAMYYCARNGYLGDYWGQGTLVTVSS
VL: not shown
notes: also called anti-BCMA antibody clone 13A4; MAB 13A4
- Kd [1]: 5100 pM
- koff [1]: 0.00036 s⁻¹
- kon [1]: 72000 M⁻¹ s⁻¹

B2: anti-BCMA Fab clone 13A4 (Fab, V domains shown)
VH: EVQLVQSGAEVKKPGESLKISCKGSGYSFTSYWIGWVRQMPGKGLEWMGIIYPGDSDTRYSPSFQGQVTISADKSISTAYLQWSSLKASDTAMYYCARNGYLGDYWGQGTLVTVSS
VL: not shown
notes: Phage-display Fab (Vk2D_28/VH5_1), bacterially expressed
- Kd [2]: 1800 pM
- reduction in OD (450 nm) in absence vs. presence of murine Δ-APRIL [3]: 13.1%

B3: 83A10-TCBcv (anti-BCMA/anti-CD3 T cell bispecific antibody, 2+1 Fc-containing, with charge variant) (bispecific antibody, human IgG1, kappa, L234A L235A)
heavy 1: not shown
heavy 2: not shown
light 1: EVQLLESGGGLVQPGGSLRLSCAASGFTFSTYAMNWVRQAPGKGLEWVSRIRSKYNNYATYYADSVKGRFTISRDDSKNTLYLQMNSLRAEDTAVYYCVRHGNFGNSYVSWFAYWGQGTLVTVSSASVAAPSVFIFPPSDEQLKSGTASVVCLLNNFYPREAKVQWKVDNALQSGNSQESVTEQDSKDSTYSLSSTLTLSKADYEKHKVYACEVTHQGLSSPVTKSFNRGEC
light 2: not shown
notes: also called 83A10-TCVcv
- EC50 [4]: 15600 pM
- EC50 [5]: 7800 pM
- EC50 [6]: ~17.4 nM and ~2.51 µg/mL
- EC50 of Granzyme B secretion, PBMC + RPMI-8226 cells (CBA) [7]: 340 pM
- EC50 of IL-10 secretion, PBMC + RPMI-8226 cells (CBA) [7]: 300 pM
- EC50 of TNF-α secretion, PBMC + RPMI-8226 cells (CBA) [7]: 520 pM
- EC50 of lysis of cynoBCMA-HEK cells (LDH release), cyno PBMCs donor 1 [8]: 3.5 pM
- EC50 of lysis of cynoBCMA-HEK cells (LDH release), cyno PBMCs donor 2 [8]: 2.7 pM
- mean EC50 of lysis of cynoBCMA-HEK cells (LDH release) [8]: 3.1 pM
- EC50 of redirected T-cell killing of RPMI-8226 cells (LDH release), Donor 2 [9]: 620 pM
- EC50 of redirected T-cell killing of RPMI-8226 cells (LDH release), Donor 3 [9]: 229 pM
- EC50 of redirected T-cell killing of RPMI-8226 cells (LDH release), Donor 4 [9]: 35 pM
- EC50 of redirected T-cell killing of RPMI-8226 cells (LDH release), Donor 5 [9]: 64.9 pM
- EC50 for reduction of viable (annexin-V negative) myeloma plasma cells, bone marrow aspirate Patient 001 [10]: 1000 pM
- EC50 for reduction of viable (annexin-V negative) myeloma plasma cells, bone marrow aspirate Patient 002 [10]: 8240 pM
- EC50 for reduction of viable (annexin-V negative) myeloma plasma cells, bone marrow aspirate Patient 003 [10]: 8020 pM
- binding result [11]: binds

B4: 17A5-TCBcv (anti-BCMA/anti-CD3 T cell bispecific antibody, 2+1 Fc-containing, with charge variant) (bispecific antibody, human IgG1, kappa, L234A L235A)
heavy 1: not shown
heavy 2: not shown
light 1: EVQLLESGGGLVQPGGSLRLSCAASGFTFSTYAMNWVRQAPGKGLEWVSRIRSKYNNYATYYADSVKGRFTISRDDSKNTLYLQMNSLRAEDTAVYYCVRHGNFGNSYVSWFAYWGQGTLVTVSSASVAAPSVFIFPPSDEQLKSGTASVVCLLNNFYPREAKVQWKVDNALQSGNSQESVTEQDSKDSTYSLSSTLTLSKADYEKHKVYACEVTHQGLSSPVTKSFNRGEC
light 2: not shown
- binding result [11]: binds

— US20170306036A1 (ENGMAB, published 2017)
